{"source": "paper PMC7166090", "about": "“A bacteriophage mimic of the bacterial nucleoid-associated protein Fis” (Biochemical Journal, 2020)", "binders": {"B1": {"name": "Holliday junction HJ (structured_DNA)", "DNA 1": "GGCGACGTGATCACCAGATGATTGCTAGGCATGCTTTCCGCAAGAGAAGC", "DNA 2": "GGCTTCTCTTGCGGAAAGCATGCCTAGCAATCCTGTCAGCTGCATGGAAC", "DNA 3": "GGTTCCATGCAGCTGACAGGATTGCTAGGCTCAAGGCGAACTGCTAACGG", "DNA 4": "ACCGTTAGCAGTTCGCCTTGAGCCTAGCAATCATCTGGTGATCACGTCGC"}, "B2": {"name": "Cy520 (NinH consensus) (dsDNA)", "DNA 1": "ACCGATCAAGAATTGTGCAT", "DNA 2": "ATGCACAATTCTTGATCGGT"}}, "key": {"His-NinH wt [1]": {"target": "T1, His-NinH wt (Bacteriophage lambda (cI857 Sam7), UniProt P03771 1-68, A15T)", "T1 sequence": "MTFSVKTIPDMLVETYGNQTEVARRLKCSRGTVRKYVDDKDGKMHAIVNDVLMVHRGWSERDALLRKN", "test": "EMSA; assembles on each arm; MST: PBS pH 7.4 + 0.05% Tween-20, 22 C; anisotropy: 6.7 mM Tris-HCl pH 8.0, 3.3 nM (so in the source) sodium acetate, 2 mM EDTA, 25 C; EMSA (32P): 50 mM Tris-HCl pH 8.0, 5 mM EDTA, 1 mM DTT, 5% glycerol, 100 ug/ml BSA, on ice; EMSA (Cy520): PBS pH 7.4, room temp", "conditions": "protein: recombinant; tags: N-His6; chain copies: 2; label: 5'-32P on strand 1; four-way junction, 11 bp homologous core"}, "His-NinH H45A": {"target": "T2, His-NinH H45A (Bacteriophage lambda (cI857 Sam7), UniProt P03771 1-68, A15T;H45A)", "T2 sequence": "T1 sequence with H45A", "test": "MST; retained significant binding; MST: PBS pH 7.4 + 0.05% Tween-20, 22 C; anisotropy: 6.7 mM Tris-HCl pH 8.0, 3.3 nM (so in the source) sodium acetate, 2 mM EDTA, 25 C; EMSA (32P): 50 mM Tris-HCl pH 8.0, 5 mM EDTA, 1 mM DTT, 5% glycerol, 100 ug/ml BSA, on ice; EMSA (Cy520): PBS pH 7.4, room temp", "conditions": "protein: recombinant; tags: N-His6; label: 5'-Cy5 on strand 1; blunt"}, "His-NinH T32A": {"target": "T3, His-NinH T32A (Bacteriophage lambda (cI857 Sam7), UniProt P03771 1-68, A15T;T32A)", "T3 sequence": "T1 sequence with T32A", "test": "MST; MST: PBS pH 7.4 + 0.05% Tween-20, 22 C; anisotropy: 6.7 mM Tris-HCl pH 8.0, 3.3 nM (so in the source) sodium acetate, 2 mM EDTA, 25 C; EMSA (32P): 50 mM Tris-HCl pH 8.0, 5 mM EDTA, 1 mM DTT, 5% glycerol, 100 ug/ml BSA, on ice; EMSA (Cy520): PBS pH 7.4, room temp", "conditions": "protein: recombinant; tags: N-His6; chain copies: 2; label: 5'-Cy5 on strand 1; blunt"}, "His-NinH K35A": {"target": "T4, His-NinH K35A (Bacteriophage lambda (cI857 Sam7), UniProt P03771 1-68, A15T;K35A)", "T4 sequence": "T1 sequence with K35A", "test": "MST; MST: PBS pH 7.4 + 0.05% Tween-20, 22 C; anisotropy: 6.7 mM Tris-HCl pH 8.0, 3.3 nM (so in the source) sodium acetate, 2 mM EDTA, 25 C; EMSA (32P): 50 mM Tris-HCl pH 8.0, 5 mM EDTA, 1 mM DTT, 5% glycerol, 100 ug/ml BSA, on ice; EMSA (Cy520): PBS pH 7.4, room temp", "conditions": "protein: recombinant; tags: N-His6; chain copies: 2; label: 5'-Cy5 on strand 1; blunt"}, "His-NinH R56A": {"target": "T5, His-NinH R56A (Bacteriophage lambda (cI857 Sam7), UniProt P03771 1-68, A15T;R56A)", "T5 sequence": "T1 sequence with R56A", "test": "MST; MST: PBS pH 7.4 + 0.05% Tween-20, 22 C; anisotropy: 6.7 mM Tris-HCl pH 8.0, 3.3 nM (so in the source) sodium acetate, 2 mM EDTA, 25 C; EMSA (32P): 50 mM Tris-HCl pH 8.0, 5 mM EDTA, 1 mM DTT, 5% glycerol, 100 ug/ml BSA, on ice; EMSA (Cy520): PBS pH 7.4, room temp", "conditions": "protein: recombinant; tags: N-His6; chain copies: 2; label: 5'-Cy5 on strand 1; blunt"}, "His-NinH S29A": {"target": "T6, His-NinH S29A (Bacteriophage lambda (cI857 Sam7), UniProt P03771 1-68, A15T;S29A)", "T6 sequence": "T1 sequence with S29A", "test": "MST; MST: PBS pH 7.4 + 0.05% Tween-20, 22 C; anisotropy: 6.7 mM Tris-HCl pH 8.0, 3.3 nM (so in the source) sodium acetate, 2 mM EDTA, 25 C; EMSA (32P): 50 mM Tris-HCl pH 8.0, 5 mM EDTA, 1 mM DTT, 5% glycerol, 100 ug/ml BSA, on ice; EMSA (Cy520): PBS pH 7.4, room temp", "conditions": "protein: recombinant; tags: N-His6; chain copies: 2; label: 5'-Cy5 on strand 1; blunt"}, "His-NinH wt [2]": {"target": "T1, His-NinH wt", "test": "MST; MST: PBS pH 7.4 + 0.05% Tween-20, 22 C; anisotropy: 6.7 mM Tris-HCl pH 8.0, 3.3 nM (so in the source) sodium acetate, 2 mM EDTA, 25 C; EMSA (32P): 50 mM Tris-HCl pH 8.0, 5 mM EDTA, 1 mM DTT, 5% glycerol, 100 ug/ml BSA, on ice; EMSA (Cy520): PBS pH 7.4, room temp", "conditions": "protein: recombinant; tags: N-His6; chain copies: 2; label: 5'-Cy5 on strand 1; blunt"}, "His-NinH wt [3]": {"target": "T1, His-NinH wt", "test": "EMSA; sub-micromolar; PBS; MST: PBS pH 7.4 + 0.05% Tween-20, 22 C; anisotropy: 6.7 mM Tris-HCl pH 8.0, 3.3 nM (so in the source) sodium acetate, 2 mM EDTA, 25 C; EMSA (32P): 50 mM Tris-HCl pH 8.0, 5 mM EDTA, 1 mM DTT, 5% glycerol, 100 ug/ml BSA, on ice; EMSA (Cy520): PBS pH 7.4, room temp", "conditions": "protein: recombinant; tags: N-His6; chain copies: 2; label: 5'-Cy5 on strand 1; blunt"}, "His-NinH N18A": {"target": "T7, His-NinH N18A (Bacteriophage lambda (cI857 Sam7), UniProt P03771 1-68, A15T;N18A)", "T7 sequence": "T1 sequence with N18A", "test": "MST; intermediate effect; MST: PBS pH 7.4 + 0.05% Tween-20, 22 C; anisotropy: 6.7 mM Tris-HCl pH 8.0, 3.3 nM (so in the source) sodium acetate, 2 mM EDTA, 25 C; EMSA (32P): 50 mM Tris-HCl pH 8.0, 5 mM EDTA, 1 mM DTT, 5% glycerol, 100 ug/ml BSA, on ice; EMSA (Cy520): PBS pH 7.4, room temp", "conditions": "protein: recombinant; tags: N-His6; chain copies: 2; label: 5'-Cy5 on strand 1; blunt"}}, "note": "Positions count from the first letter of the chain named."}
{"binder": "B1", "values": [{"measurement": "binding result", "setting": "His-NinH wt [1]", "value": "binds"}]}
{"binder": "B2", "values": [{"measurement": "Kd", "setting": "His-NinH H45A", "value": "> 350", "unit": "nM"}, {"measurement": "binding result", "setting": "His-NinH T32A", "value": "no binding"}, {"measurement": "binding result", "setting": "His-NinH K35A", "value": "no binding"}, {"measurement": "binding result", "setting": "His-NinH R56A", "value": "no binding"}, {"measurement": "Kd", "setting": "His-NinH S29A", "value": "13 ± 2.7", "unit": "nM"}, {"measurement": "Kd", "setting": "His-NinH wt [2]", "value": "5.6 ± 1.5", "unit": "nM"}, {"measurement": "Kd", "setting": "His-NinH wt [3]", "value": "< 1000", "unit": "nM"}, {"measurement": "Kd", "setting": "His-NinH N18A", "value": "> 220", "unit": "nM"}]}
